# Laboratory results as given in patent US20130109580A1, “High-Affinity Peptide Probes for Tumor Biomarker, GRP-78, and Screening Method Thereof” (ATOMIC ENERGY CONCIL-INSTITUTE OF NUCLEAR ENERGY RESEARCH, priority 2011, published 2013).
# Key:
# GRP-78 [1] = biological target: T1, GRP-78 (Homo sapiens, UniProt P11021); experiment: Phage display panning against GRP-78 with DNA sequencing of picked phages; assay type: binding; conditions: 24 independent phages picked after panning
# Excerpt: (a) A desired target protein 10 is fixed at bottom of a container added with selected phages 11 from phage display library.
# (b) Each phage 11 is bound to the target protein 10 by using amino acid sequences contained in the phage 11.
# (c) A TBST buffer having 0.1% Tween-20 is obtained for processing washing. By using Tween-20 as a surfactant, unspecific bindings are destroyed.
# (d) The phages 11 which are bound to the target protein 10 are eluted under a weak acid status to be collected.
# (e) after amplifying the collected phages 11 bound to the target protein 10, a panning process of binding, washing and eluting as in step (b) to step (d) is run for two times. For better screening efficiency, a density of Tween-20 is increased after each time of the panning process. It is because that the unspecific bindings are not destroyed with a too low density of Tween-20; yet a too high density of Tween-20 not only destroys the specific bindings between the phages 11 and the target protein 10 but also destroys integrities of proteins in the phages 11.
# (f) Then, a quantification process is run with the screened phages 11 for estimating screening efficiency. DNA sequencing is then processed with the phages 11 to obtain actual sequences of 7 amino acids deposed on g3 protein (g3p). […]
# GRP-78 [2] = biological target: T1, GRP-78; experiment: ELISA analysis of phage affinity to GRP-78; assay type: binding; conditions: Maxisorb 96-well plate coated with GRP-78; CPS minus background without GRP-78; serially diluted phages
# Description: (g) In the end, enzyme-linked immunosorbent assay (ELISA) analysis is processed with the phages 11 to obtain high-affinity amino acid sequences of peptides.
# In FIG. 2, after three times of the panning process, luminescent antibodies 12 (HRP-conjugated M13-phage g8p monoclone antibody) against the phages 11 are added to be washed with the TBST buffer having 0.5% Tween-20. At last, an enhanced chemiluminescence (ECL) substrate is added for developing.
# Please further refer to FIG. 4 and FIG. 5, which are a view showing a calculating process and a result of an ELISA analysis. As shown in the figures, the four sequences selected from the five sequences are numbered as phage#01, phage#03, phage#13 and phage#15 for comparing their affinities to GRP-78. An ELISA analysis is processed after values of densities of the phages are deducted by background values at the same densities. In FIG. 3, Maxisorb 96-well plate is used. Row 11 and row 12 are not used. A1˜A10, C1˜C10, E1˜E10 and G1˜G10 are coated with GRP-78. 80 wells of A1˜A10, B1˜B10, C1˜C10, D1˜D10, E1˜E10, F1˜F10, G1˜G10, H1˜H10 and […] along with 40 clean wells are all blocked. On diluting the phages, the plate containing the 80 blocked wells along with the 40 blocked clean wells is used. The first to the tenth wells in each row contain phages sequentially diluted. […] A number of counts per second (CPS) is obtained by using an ELISA reader. […]
# T1 sequence (P11021 19-654, species assumed): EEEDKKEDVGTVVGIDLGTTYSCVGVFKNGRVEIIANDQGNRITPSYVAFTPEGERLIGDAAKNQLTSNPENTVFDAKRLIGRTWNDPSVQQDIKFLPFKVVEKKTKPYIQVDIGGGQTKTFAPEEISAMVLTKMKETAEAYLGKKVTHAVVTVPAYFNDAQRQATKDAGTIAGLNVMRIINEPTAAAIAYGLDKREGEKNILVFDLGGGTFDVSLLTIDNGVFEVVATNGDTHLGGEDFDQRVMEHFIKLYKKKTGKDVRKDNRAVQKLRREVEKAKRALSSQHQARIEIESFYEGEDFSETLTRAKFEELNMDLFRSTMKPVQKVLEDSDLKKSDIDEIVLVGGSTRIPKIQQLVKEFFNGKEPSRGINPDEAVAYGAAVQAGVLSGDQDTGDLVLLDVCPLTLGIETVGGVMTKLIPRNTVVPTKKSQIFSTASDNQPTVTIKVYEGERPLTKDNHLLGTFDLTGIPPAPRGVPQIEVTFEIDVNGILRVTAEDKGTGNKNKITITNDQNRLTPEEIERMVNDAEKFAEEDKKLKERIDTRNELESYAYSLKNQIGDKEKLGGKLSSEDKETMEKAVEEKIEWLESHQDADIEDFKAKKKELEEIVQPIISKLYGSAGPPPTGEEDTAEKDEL
Substance,occurrence of the sequence among picked phages (GRP-78 [1]),"affinity / binding force to GRP-78 (ELISA curve, pure CPS vs phage density) (GRP-78 [2])"
YSLRMDF,very few occurrences,
KVW,,strong binding forces
KLWVIPQ [ruled out for later analysis],very few occurrences,
KCCY,,strong binding forces
